In PMC5663869 (2017):
Where no end group is shown, it is not given here.

Columns and labels:
BAZ2B BRD = BAZ2B BRD (human, UniProt Q9UIF8 1-2168); test: ITC
BAZ2B PHD–BRD = BAZ2B PHD–BRD (human, UniProt Q9UIF8 1-2168); test: ITC
Sequence of BAZ2B PHD–BRD (Q9UIF8 whole entry): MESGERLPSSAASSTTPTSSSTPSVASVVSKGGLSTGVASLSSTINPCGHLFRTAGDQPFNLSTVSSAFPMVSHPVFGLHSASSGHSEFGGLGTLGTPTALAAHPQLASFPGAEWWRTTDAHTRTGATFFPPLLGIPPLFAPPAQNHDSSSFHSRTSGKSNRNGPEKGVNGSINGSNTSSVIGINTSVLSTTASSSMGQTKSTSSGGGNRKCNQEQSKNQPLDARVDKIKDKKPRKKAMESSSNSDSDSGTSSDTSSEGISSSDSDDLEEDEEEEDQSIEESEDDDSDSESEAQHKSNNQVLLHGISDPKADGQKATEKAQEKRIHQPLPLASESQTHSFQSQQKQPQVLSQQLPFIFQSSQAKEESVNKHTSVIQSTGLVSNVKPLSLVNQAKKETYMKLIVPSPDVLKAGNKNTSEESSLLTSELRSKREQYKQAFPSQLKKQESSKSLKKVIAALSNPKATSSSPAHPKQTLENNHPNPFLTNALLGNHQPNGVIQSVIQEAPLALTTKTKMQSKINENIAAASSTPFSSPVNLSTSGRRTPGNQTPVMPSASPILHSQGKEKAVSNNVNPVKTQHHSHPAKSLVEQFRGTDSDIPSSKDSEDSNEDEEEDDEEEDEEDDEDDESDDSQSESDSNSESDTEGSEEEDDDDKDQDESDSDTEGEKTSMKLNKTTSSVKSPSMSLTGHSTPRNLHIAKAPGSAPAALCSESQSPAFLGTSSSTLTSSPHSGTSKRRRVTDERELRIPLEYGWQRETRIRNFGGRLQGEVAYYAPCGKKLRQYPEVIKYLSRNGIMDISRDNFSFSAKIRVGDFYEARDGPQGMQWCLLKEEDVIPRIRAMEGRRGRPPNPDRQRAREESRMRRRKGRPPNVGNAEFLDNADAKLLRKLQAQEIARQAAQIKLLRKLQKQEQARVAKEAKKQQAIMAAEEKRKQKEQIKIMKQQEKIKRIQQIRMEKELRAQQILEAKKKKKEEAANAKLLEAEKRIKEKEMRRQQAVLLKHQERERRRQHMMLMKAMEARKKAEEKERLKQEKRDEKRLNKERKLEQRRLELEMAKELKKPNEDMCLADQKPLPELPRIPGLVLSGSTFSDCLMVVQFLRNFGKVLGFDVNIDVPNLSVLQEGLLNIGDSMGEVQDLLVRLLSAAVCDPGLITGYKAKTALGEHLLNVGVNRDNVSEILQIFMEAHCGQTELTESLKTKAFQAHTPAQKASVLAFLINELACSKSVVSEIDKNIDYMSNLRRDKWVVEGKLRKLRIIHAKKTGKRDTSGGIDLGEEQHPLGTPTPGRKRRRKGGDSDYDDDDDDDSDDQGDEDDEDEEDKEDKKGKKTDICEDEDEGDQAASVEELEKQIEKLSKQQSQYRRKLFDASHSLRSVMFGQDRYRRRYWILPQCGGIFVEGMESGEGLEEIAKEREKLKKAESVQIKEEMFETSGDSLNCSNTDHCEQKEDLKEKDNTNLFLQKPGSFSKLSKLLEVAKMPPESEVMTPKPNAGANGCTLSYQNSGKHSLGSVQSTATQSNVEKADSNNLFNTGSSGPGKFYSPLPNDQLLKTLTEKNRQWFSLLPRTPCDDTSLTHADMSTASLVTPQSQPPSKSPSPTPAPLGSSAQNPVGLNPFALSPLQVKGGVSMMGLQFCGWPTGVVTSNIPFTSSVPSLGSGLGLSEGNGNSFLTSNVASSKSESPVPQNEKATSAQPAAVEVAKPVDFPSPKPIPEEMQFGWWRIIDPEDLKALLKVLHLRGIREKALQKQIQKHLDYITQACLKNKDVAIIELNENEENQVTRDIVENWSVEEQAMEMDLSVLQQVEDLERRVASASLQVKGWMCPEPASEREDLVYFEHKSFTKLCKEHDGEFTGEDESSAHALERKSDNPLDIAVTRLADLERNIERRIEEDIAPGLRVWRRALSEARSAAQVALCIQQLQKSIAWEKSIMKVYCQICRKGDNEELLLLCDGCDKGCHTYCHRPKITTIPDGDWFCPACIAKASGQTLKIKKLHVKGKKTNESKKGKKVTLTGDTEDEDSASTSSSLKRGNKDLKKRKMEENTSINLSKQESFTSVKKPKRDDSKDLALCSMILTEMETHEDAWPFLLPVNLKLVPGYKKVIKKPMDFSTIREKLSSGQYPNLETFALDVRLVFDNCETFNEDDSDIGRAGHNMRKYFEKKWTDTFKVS

Sequence of BAZ2B BRD (Q9UIF8 whole entry): as above

TGGK(Ac)APRKQLA [histone H3(11–21aa)K14ac peptide]
Kd (BAZ2B BRD): 8.2 µM
Kd (BAZ2B PHD–BRD): 10 µM
